The experiment deals with PDGFR-alpha (platelet derived growth factor receptor-alpha) on human osteosarcoma MG-63 cells (human) (UniProt P16234). Kind of experiment: FACS titration on MG-63 cells, nonlinear fit of geometric mean fluorescence; goat anti-mouse detection; 95% CI ±99 pM.

pKd: −log10 of the molar value.

PDGFR-alpha (platelet derived growth factor receptor-alpha) on human osteosarcoma MG-63 cells (human), sequence (P16234 24-1089): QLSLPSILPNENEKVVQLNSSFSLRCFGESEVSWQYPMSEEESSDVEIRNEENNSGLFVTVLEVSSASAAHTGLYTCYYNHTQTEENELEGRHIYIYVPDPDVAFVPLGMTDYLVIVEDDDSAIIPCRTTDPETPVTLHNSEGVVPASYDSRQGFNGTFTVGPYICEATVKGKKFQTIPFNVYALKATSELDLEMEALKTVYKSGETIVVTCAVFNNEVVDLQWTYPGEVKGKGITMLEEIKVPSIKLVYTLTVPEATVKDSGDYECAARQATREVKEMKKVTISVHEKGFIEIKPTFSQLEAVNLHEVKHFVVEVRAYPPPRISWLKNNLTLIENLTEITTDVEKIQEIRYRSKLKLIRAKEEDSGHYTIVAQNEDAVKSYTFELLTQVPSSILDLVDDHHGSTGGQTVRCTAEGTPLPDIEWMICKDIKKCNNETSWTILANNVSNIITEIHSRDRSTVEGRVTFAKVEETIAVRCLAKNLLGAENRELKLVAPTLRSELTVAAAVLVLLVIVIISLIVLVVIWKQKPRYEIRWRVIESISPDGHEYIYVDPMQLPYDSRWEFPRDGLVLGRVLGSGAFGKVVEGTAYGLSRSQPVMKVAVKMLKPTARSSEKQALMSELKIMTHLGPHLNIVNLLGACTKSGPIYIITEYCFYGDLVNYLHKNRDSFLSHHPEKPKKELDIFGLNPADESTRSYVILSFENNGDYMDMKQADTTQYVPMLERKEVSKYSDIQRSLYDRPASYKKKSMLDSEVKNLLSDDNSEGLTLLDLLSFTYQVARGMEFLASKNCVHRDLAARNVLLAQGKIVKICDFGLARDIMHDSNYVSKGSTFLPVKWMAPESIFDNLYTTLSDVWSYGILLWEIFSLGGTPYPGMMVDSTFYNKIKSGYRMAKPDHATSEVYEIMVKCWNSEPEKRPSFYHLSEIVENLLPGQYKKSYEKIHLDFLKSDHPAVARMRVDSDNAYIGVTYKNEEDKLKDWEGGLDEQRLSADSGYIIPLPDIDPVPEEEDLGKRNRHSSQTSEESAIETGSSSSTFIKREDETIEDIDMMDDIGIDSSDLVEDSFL

In the case of CD140a control antibody, the negative-log Kd (pKd) (commonly the Kd on a negative log10 scale, so that one unit is a factor of ten) was 9.84.
